T1: human IL-11 (human, UniProt P20809 22-199)
T1 sequence: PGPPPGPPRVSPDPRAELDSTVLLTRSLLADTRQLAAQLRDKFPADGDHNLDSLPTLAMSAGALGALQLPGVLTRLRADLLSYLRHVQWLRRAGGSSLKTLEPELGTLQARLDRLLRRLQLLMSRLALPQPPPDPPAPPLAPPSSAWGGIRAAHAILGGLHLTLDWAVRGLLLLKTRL

T2: murine IL-11 (mouse, UniProt P47873 22-199)
T2 sequence: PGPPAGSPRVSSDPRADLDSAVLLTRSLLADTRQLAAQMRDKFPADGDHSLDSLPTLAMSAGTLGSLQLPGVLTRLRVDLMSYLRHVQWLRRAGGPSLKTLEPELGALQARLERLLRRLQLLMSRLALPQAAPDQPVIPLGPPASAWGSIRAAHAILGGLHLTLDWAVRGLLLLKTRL

T3: cynomolgus IL-11 (cynomolgus, UniProt P20808 22-199)
T3 sequence: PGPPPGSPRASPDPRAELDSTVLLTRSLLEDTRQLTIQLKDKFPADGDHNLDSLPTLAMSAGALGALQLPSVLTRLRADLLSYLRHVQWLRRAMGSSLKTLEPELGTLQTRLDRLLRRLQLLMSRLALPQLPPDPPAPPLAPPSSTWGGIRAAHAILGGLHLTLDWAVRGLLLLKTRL

T4: rat IL-11 (rat, UniProt Q99MF5 22-199)
T4 sequence: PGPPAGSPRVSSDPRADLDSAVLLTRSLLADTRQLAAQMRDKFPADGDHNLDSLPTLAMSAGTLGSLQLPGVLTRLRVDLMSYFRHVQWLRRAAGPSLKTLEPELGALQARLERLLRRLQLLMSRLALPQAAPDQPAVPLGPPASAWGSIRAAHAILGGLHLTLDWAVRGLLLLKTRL

B1: TPP-29520 (antibody, mouse IgG1)
heavy: QVQLVESGGGVVQPGRSLRLSCAASGFTFSHYDMHWVRQAPGKGLEWVAVISYSGSVKFYADSVKGRFTISRDNSKNTLYLQMNSLRAEDTAVYYCARTPGSHFDYWGQGTLVTVSSAKTTPPSVYPLAPGSAAQTNSMVTLGCLVKGYFPEPVTVTWNSGSLSSGVHTFPAVLQSDLYTLSSSVTVPSSTWPSETVTCNVAHPASSTKVDKKIVPRDCGCKPCICTVPEVSSVFIFPPKPKDVLTITLTPKVTCVVVDISKDDPEVQFSWFVDDVEVHTAQTQPREEQFNSTFRSVSELPIMHQDWLNGKEFKCRVNSAAFPAPIEKTISKTKGRPKAPQVYTIPPPKEQMAKDKVSLTCMITDFFPEDITVEWQWNGQPAENYKNTQPIMDTDGSYFVYSKLNVQKSNWEAGNTFTCSVLHEGLHNHHTEKSLSHSPGK
light: QSVLTQPPSASGTPGQRVTISCSGSSSNIGSNYVNWYQQLPGTAPKLLIYYDDLRPSGVPDRFSGSKSGTSASLAISGLRSEDEADYYCSAWDDSLSGVVFGGGTKLTVLGQPKSSPSVTLFPPSSEELETNKATLVCTITDFYPGVVTVDWKVDGTPVTQGMETTQPSKQSNNKYMASSYLTLTARAWERHSSYSCQVTHEGHTVEKSLSRADCS
notes: mIgG1, Lambda
B2: TPP-29521 (antibody, mouse IgG1)
heavy: QVQLVESGGGVVQPGRSLRLSCAASGFTFSHYDMHWVRQAPGKGLEWVAVISYEGSNKFYADSVKGRFTISRDNSKNTLYLQMNSLRAEDTAVYYCARTPGFHFDYWGQGTLVTVSSAKTTPPSVYPLAPGSAAQTNSMVTLGCLVKGYFPEPVTVTWNSGSLSSGVHTFPAVLQSDLYTLSSSVTVPSSTWPSETVTCNVAHPASSTKVDKKIVPRDCGCKPCICTVPEVSSVFIFPPKPKDVLTITLTPKVTCVVVDISKDDPEVQFSWFVDDVEVHTAQTQPREEQFNSTFRSVSELPIMHQDWLNGKEFKCRVNSAAFPAPIEKTISKTKGRPKAPQVYTIPPPKEQMAKDKVSLTCMITDFFPEDITVEWQWNGQPAENYKNTQPIMDTDGSYFVYSKLNVQKSNWEAGNTFTCSVLHEGLHNHHTEKSLSHSPGK
light: QSVLTQPPSASGTPGQRVTISCSGSSSNIGSNYVSWYQQLPGTAPKLLIYYDDLRPSGVPDRFSGSKSGTSASLAISGLRSEDEADYYCSAWDDSLSGVVFGGGTKLTVLGQPKSSPSVTLFPPSSEELETNKATLVCTITDFYPGVVTVDWKVDGTPVTQGMETTQPSKQSNNKYMASSYLTLTARAWERHSSYSCQVTHEGHTVEKSLSRADCS
notes: mIgG1, Lambda
B3: TPP-29522 (antibody, mouse IgG1)
heavy: QVQLVESGGGVVQPGRSLRLSCAASGFTFSHYDMHWVRQAPGKGLEWVAVISYEGSNKFYADSVKGRFTISRDNSKNTLYLQMNSLRAEDTAVYYCARTPGFHFDYWGQGTLVTVSSAKTTPPSVYPLAPGSAAQTNSMVTLGCLVKGYFPEPVTVTWNSGSLSSGVHTFPAVLQSDLYTLSSSVTVPSSTWPSETVTCNVAHPASSTKVDKKIVPRDCGCKPCICTVPEVSSVFIFPPKPKDVLTITLTPKVTCVVVDISKDDPEVQFSWFVDDVEVHTAQTQPREEQFNSTFRSVSELPIMHQDWLNGKEFKCRVNSAAFPAPIEKTISKTKGRPKAPQVYTIPPPKEQMAKDKVSLTCMITDFFPEDITVEWQWNGQPAENYKNTQPIMDTDGSYFVYSKLNVQKSNWEAGNTFTCSVLHEGLHNHHTEKSLSHSPGK
light: QSVLTQPPSASGTPGQRVTISCSGSSSNIGSNYVNWYQQLPGTAPKLLIYYDDLRPSGVPDRFSGSKSGTSASLAISGLRSEDEADYYCSAWDDSLSGVVFGGGTKLTVLGQPKSSPSVTLFPPSSEELETNKATLVCTITDFYPGVVTVDWKVDGTPVTQGMETTQPSKQSNNKYMASSYLTLTARAWERHSSYSCQVTHEGHTVEKSLSRADCS
notes: mIgG1, Lambda

Experiments:
[1] = molecular target: T1, human IL-11; assay: cell-based or functional assay
[2] = molecular target: T2, murine IL-11; assay: cell-based or functional assay
[3] = molecular target: T3, cynomolgus IL-11; assay: cell-based or functional assay
[4] = molecular target: T4, rat IL-11; assay: cell-based or functional assay
[5] = molecular target: T1, human IL-11; assay: SPR 37 C, antibody captured, IL-11 as analyte
Procedure: (§1) To assess the binding kinetics and affinity of anti-IL-11 antibodies as well as their species cross-reactivity profile, binding assays were conducted using surface plasmon resonance (SPR). Binding assays were performed on a Biacore T200 instrument or on a Biacore 8K+ instrument (Cytiva) at 37° C. using assay buffer HBS EP+, 300 mM NaCl, 1 mg/ml BSA, 0.05% NaN3. Antibodies were captured either via anti-human Fc IgGs (“Human antibody capture kit”, Order No. BR100839, Cytiva) or via anti-mouse Fc IgGs (“Mouse antibody capture kit, Order No. BR100383, Cytiva) covalently amine coupled to a Series S CM5 sensor chip (Cytiva) depending on the isotype. The amine coupling was carried out according to the manufacturer's instructions using 1-ethyl-3-(3-dimethylaminopropyl) carbodiimide hydrochloride (EDC), N-hydroxysuccinimide (NHS) and ethanolamine HCl, pH 8.5 (“Amine Coupling Kit” BR-1000-50, Cytiva.). Human, mouse, cynomolgus or rat IL-11 was used as analyte at several dilutions within the concentration range from 0.05-200 nM. For binding assays with only one concentration 200 nM IL-11 was used. The sensor surface was regenerated with glycine pH 1.7 after each antigen injection. Obtained sensorgrams were double referenced (subtraction of reference flow cell signal and buffer injection) and were fitted to a 1:1 Langmuir binding model to derive kinetic data using the Biacore T200 Evaluation software or the Biacore Insight software. If no value is reported, there was either no binding or very low binding and multiphasic binding behavior. Values below 1E-12 were considered to be below the dynamic range of the instrument and set to <1E-12.

[6] = molecular target: T2, murine IL-11; assay: SPR 37 C, antibody captured, IL-11 as analyte
Procedure: as §1

[7] = molecular target: T3, cynomolgus IL-11; assay: SPR 37 C, antibody captured, IL-11 as analyte
Procedure: as §1

[8] = molecular target: T4, rat IL-11; assay: SPR 37 C, antibody captured, IL-11 as analyte
Procedure: as §1

[9] = molecular target: T1, human IL-11; assay: Di-complex ELISA, competitor canine IL11RA-Fc on coated IL-11;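 note: signal drop relative to signal at lowest antibody concentration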
Procedure: (§2) The assay is performed using streptavidin coated microtiter plates (Greiner bio-one, #781997). In a first step, 10 nM biotinylated mouse IL-11 (Invigate, Germany, e.g., lot #C210819-09) or human IL-11 (Invigate, Germany, e.g., lot #C121021-19) is coated in 25 μl PBS on the plate at 4° C. overnight. Next day, the plate is washed three times with 50 μl PBST and then blocked with 50 μl SmartBlock (Candor, #113125) for one hour at room temperature (RT). After additional three washes with PBST, 25 μl of a mixture of the murine anti IL-11 antibody and recombinant canine IL11RA-Fc fusion protein (Sino Biological, #70078-D02H) in PBS-T, 10% Smartblock are added simultaneously to the plate and incubated for one hour at RT. […] After three additional washes with PBS-T, 25 μl anti-human-POD (Sigma, #A0170) in PBS-T, 10% Smartblock is added and incubated for 1 hour at RT. After a final three washes with PBS-T, 25 μl AmplexRed (Fisher Scientific, A12222), 1/1000 in PBS, 0,003% H₂O₂, is added as substrate and incubated for 15 min at RT in the dark. Then, the fluorescence is measured with a plate reader at 535/595 nm. Signals from dose responses were used to calculate IC50 values (GraphPad Prism). Efficacy was calculated as [(signal measured at lowest antibody concentration−signal measured at the highest antibody concentration)×100] divided by (signal measured at lowest antibody concentration−signal measured in the absence of IL11Ra).
(§3) IgG converted antibodies were subjected to the experimental assay procedure described in Example 18.

[10] = molecular target: T2, murine IL-11; assay: as above
Procedure: as §2, §3

Binder	RGA Efficacy (%) [1]	RGA IC50 [1]	RGA Efficacy (%) [2]	RGA IC50 [2]	RGA Efficacy (%) [3]	RGA Efficacy (%) [4]	RGA IC50 [4]	Kd [5]	Kd [6]	binding result [7]	Kd [8]	Efficacy (%) [9]	Efficacy (%) [10]	Kd [7]
B1	99.7%	1.7 nM	100%	0.91 nM	58.6%	101%	1.3 nM	0.09 nM	0.11 nM	no binding (tested: IL-11 up to 200 nM)	0.29 nM	0.3%	1.1%	–
B2	99.2%	1.9 nM	103%	0.76 nM	60%	98.9%	1.8 nM	0.18 nM	0.098 nM	no binding (tested: IL-11 up to 200 nM)	2.1 nM	1.7%	12.1%	–
B3	98.6%	1.6 nM	101%	0.78 nM	52%	101%	1.6 nM	0.034 nM	0.029 nM	–	0.34 nM	0%	3.6%	24 nM
